Data: patent CN104610448A (WOMEN S HOSPITAL SCHOOL OF MEDICINE ZHEJIANG UNIVERSITY, dated 2015)

What was measured:
[1] = biological target: T1, HPV58E6 (pEGFP-C1-HPV58E6质粒转染293T细胞所提蛋白) (HPV58, UniProt P26555 1-149); test: western blot, 293T lysate, recombinant antibody 1:100
T1 construct: Expressed from pEGFP-C1 in 293T cells, so an EGFP fusion (band at 37-55 KD); assayed as denatured cell lysate in western blot; not shown: EGFP tag encoded by the pEGFP-C1 vector (N-terminal to the insert)
T1 sequence (looked up): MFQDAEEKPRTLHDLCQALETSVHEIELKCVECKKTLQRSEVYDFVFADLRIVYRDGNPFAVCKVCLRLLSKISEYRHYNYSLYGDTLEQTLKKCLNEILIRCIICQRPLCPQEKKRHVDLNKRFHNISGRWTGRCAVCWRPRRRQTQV

[2] = biological target: T2, HPV16E6 (pEGFP-C1-HPV16E6质粒转染293T细胞所提蛋白) (HPV16, UniProt P03126 1-158); test: western blot, 293T lysate, recombinant antibody
T2 construct: not shown: EGFP tag encoded by the pEGFP-C1 vector (N-terminal to the insert)
T2 sequence (P03126 whole entry): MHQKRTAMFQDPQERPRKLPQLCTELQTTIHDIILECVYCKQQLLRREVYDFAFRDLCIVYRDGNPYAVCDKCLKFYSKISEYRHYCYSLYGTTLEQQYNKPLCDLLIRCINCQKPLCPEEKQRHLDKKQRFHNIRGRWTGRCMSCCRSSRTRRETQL

B1: HPV58E6特异性兔单克隆抗体 (ZJM1b-9 H2/L1 重组抗体) (antibody, V domains shown)
VH: QSVEESGGRLVTPGTPLTLTCTVSGFSLSSKTISWVRQAPGKGLEWIGAIDSNGMKAYARWAKGRFTISKSSTTVYLKITSPTTEDTATYFCVKPNNLWGPGTLVTVSS
VL: AQVLTQTPSPVSAAVGGTVTINCQSSQSVYNNNALSWYQQKPGQPPKLLIYSASKVATGVPSRFSGSGSGAQFTLTISDLECDDAATYYCQGEFSCSSADCFAFGGGTEVVVKG
notes: Recombinant rabbit monoclonal antibody made in HEK-293-6E cells from pTT5 plasmids; also called ZJM1b-9中的H2/L1; ZJM-1-9H2/L1
B1: binds [1]; no binding (tested: 1:100稀释) [2].
